Laboratory results as given in patent publication US11612662B2, “Multi-arm polymeric prodrug conjugates of pemetrexed-based compounds” (priority 2010, dated 2023).

Columns and labels:
[1] = Single dose maximum tolerated dose study; assay type: in vivo, mice; conditions: single intravenous dose; for Single dose MTD: dose equivalents, in mg/kg
Experimental: Because of too much efficacy of daily dosing for ten days in a pilot xenograft study (likely due to the effects of repeated dosing), a single dose maximum tolerated dose study was conducted using a method similar to that provided in Example 3 in order to have a better dosing schedule for a comparative xenograft study.

xenograft = assay: In vivo xenograft study; parameters: species or system female athymic nu/nu mice; conditions: as of day 26; intravenously, at 80% and at 50% of the single dose maximum tolerated dose
Experimental: Briefly, for run of the experiment, a previously untreated group of 8-12 week old mice was intravenously administered a test article prepared in saline and diluted to appropriate concentrations to allow administration volumes of a maximum of 20 mL/kg. Each compound of interest was tested twice: once at 80% of the maximum tolerated dose and once at 50% of the maximum tolerated (maximum tolerated doses calculated on the single dose maximum tolerated dose study).
Mice were observed daily for clinical signs and body weights were recorded daily (except on weekend days) then biweekly until the end of study. Dosing was terminated for any group in which mean weight loss exceeded 20% or >10% of animals died. Moribund animals were euthanized.

in vivo = conditions: for Days of Deaths (s = surviving at study end): five mice listed singly; for tolerability of the dosage level: tolerated if treatment-related weight loss <20%; for Max. Mean Body Weight change during Rx (%) / MTD (maximum tolerated dose): intravenously once each day for ten days; for MTD (maximum tolerated dose): mice fed a folate deficient diet, dose equivalents
Experimental: The purpose of this study was to determine the maximum tolerated dose for pemetrexed (PMX), Compound 20a (from Example 1), Compound 20b (from Example 1), Compound 20c (from Example 1), and Compound 20d (from Example 1) in female SCID mice fed a low folate diet. All compounds were administered intravenously, once each day, for ten consecutive days.
Calculations were made to provide “dose equivalents” between PMX, Compound 20a, Compound 20b, Compound 20c and Compound 20d, which “dose equivalents” along with the “actual dose” administered are provided in Table 2. All dosagese in this example are expressed in terms of “dose equivalents” and adjustments were made for excipients, salts and hydration state.
Female SCID mice (HsdIcr:Ha (ICR)-Prkdc-scid) were obtained from Harlan. They were seven weeks old on Day 1 of the experiment. The mice in Groups 1 and 2 were fed irradiated Rodent Diet 5053 (LabDiet™). The mice in Groups 3 through 19 were fed irradiated Folic Acid Deficient Purina TestDiet supplemented with 1% succinylsufathiazol from 14 days prior to dosing until 14 days after dosing was completed, at which time the study was terminated and the mice were then euthanized. All groups received drinking water ad libitum. Mice were housed in static cages in clean rooms that provide H.E.P.A filtered air into the environment at 100 complete air changes per hour. All treatments, body weight determinations, and tumor measurements were carried out in the environment. The environment was controlled to a temperature range of 70°±2° F. and a humidity range of 30-70%. […] Mice found in obvious distress or in a moribund condition were euthanized. The study was carried out in an AAALAC accredited facility.
Treatments began on Day 1. […] Mice in Groups 3 through 19 were fed irradiated Folic Acid Deficient Purina TestDiet with 1% Succinylsufathiazol for 14 days prior to dosing as well as throughout the entire experiment. All mice were dosed according to individual body weight on the day of treatment (0.2 ml/20 g).
Mice were weighed on each day of treatment and at least three times weekly thereafter. Individual body weights were recorded three times weekly. […] In this report, a dosage level is described as tolerated if treatment-related weight loss (during and two weeks after treatment) is <20%. Upon death or euthanasia, all mice were necropsied to provide a general assessment of potential cause of death and perhaps target organs for toxicity.

[2] = low folate diet, 1 mg/kg/inj dose equivalents
[3] = low folate diet, 3.75 mg/kg/inj dose equivalents
[4] = low folate diet, 15 mg/kg/inj dose equivalents
[5] = low folate diet, dosage levels found tolerated
[6] = low folate diet, once each day for ten days, 1 mg/kg/inj dose equivalents
[7] = low folate diet, once each day for ten days, 3.75 mg/kg/inj dose equivalents
[8] = low folate diet, once each day for ten days, 15 mg/kg/inj dose equivalents
[9] = low folate diet, dosage levels found toxic

Substance | Single dose MTD [1] | BWL (body weight loss) ([1]; tested dose (equiv) 125) | day (of body weight loss) ([1]; tested dose (equiv) 125) | mean day of death ([1]; tested dose (equiv) 125) | treatment-related deaths ([1]; tested dose (equiv) 125) | tumor volume compared with saline control (xenograft) | tumor volume compared with the other articles tested (xenograft) | Days of Deaths (s = surviving at study end) (in vivo; [2]) | tolerability of the dosage level (in vivo; low folate diet, 1 mg/kg) | Days of Deaths (s = surviving at study end) (in vivo; [3]) | tolerability of the dosage level (in vivo; low folate diet, 3.75 mg/kg) | tolerability of the dosage level (in vivo; low folate diet, 15 mg/kg) | common clinical signs (in vivo; [5]) | necropsy findings (in vivo; [5]) | Max. Mean Body Weight change during Rx (%) (in vivo; [2]) | Max. Mean Body Weight change during Rx (%) (in vivo; [3]) | Max. Mean Body Weight change during Rx (%) (in vivo; [4]) | Day of Max. Mean Body Weight Loss (body weight nadir) (in vivo; [6]) | Day of Max. Mean Body Weight Loss (body weight nadir) (in vivo; [7]) | Day of Max. Mean Body Weight Loss (body weight nadir) (in vivo; [8]) | also measured
4-arm-PEG20k-γ-amide-Pemetrexed Conjugate [Compound 20b] | 70 | −24.4% | 7 | 9 | 1 | significantly less tumor volume than saline control | lowest tumor volumes of all articles tested | s, s, s, s, s | well tolerated | s, s, s, s, s | well tolerated | well tolerated | Rough pelage | Nothing significant | −1.8% | −6.5% | −16.9% | 5 | 5 | 12 | BWL (body weight loss) ([1]; tested dose (equiv) 70): −8.7%; day (of body weight loss) ([1]; tested dose (equiv) 70): 7; treatment-related deaths ([1]; tested dose (equiv) 70): 0; BWL (body weight loss) ([1]; tested dose (equiv) 95): −16.4%; day (of body weight loss) ([1]; tested dose (equiv) 95): 7; treatment-related deaths ([1]; tested dose (equiv) 95): 0; Days of Deaths (s = surviving at study end) (in vivo; [4]): s, s, s, s, s; MTD (maximum tolerated dose) (in vivo): ~15 mg/kg
4-arm-PEG40k-γ-amide-Pemetrexed Conjugate [Compound 20d] | ~40 | −21.8% | 6 | 7 | 5 | significantly less tumor volume than saline control | lowest tumor volumes of all articles tested | s, s, s, s, s | tolerated | s, s, s, s, s | tolerated | toxic | Rough pelage | Nothing significant | −0.9% | −4.5% | −28.8% | 5 | 5 | 15 | BWL (body weight loss) ([1]; tested dose (equiv) 40): −12.6%; day (of body weight loss) ([1]; tested dose (equiv) 40): 7; treatment-related deaths ([1]; tested dose (equiv) 40): 0; BWL (body weight loss) ([1]; tested dose (equiv) 60): −20.8%; day (of body weight loss) ([1]; tested dose (equiv) 60): 9; treatment-related deaths ([1]; tested dose (equiv) 60): 0; BWL (body weight loss) ([1]; tested dose (equiv) 90): −21.4%; day (of body weight loss) ([1]; tested dose (equiv) 90): 9; mean day of death ([1]; tested dose (equiv) 90): 12; treatment-related deaths ([1]; tested dose (equiv) 90): 1; maximum treatment-related body weight loss (in vivo; low folate diet, 1 mg/kg): 0.9%; time to recover lost body weight (in vivo; low folate diet, 1 mg/kg): 0.8 days; maximum treatment-related body weight loss (in vivo; low folate diet, 3.75 mg/kg): 4.5%; time to recover lost body weight (in vivo; low folate diet, 3.75 mg/kg): 11.3 days; maximum treatment-related body weight loss (in vivo; low folate diet, 15 mg/kg): 28.8%; time to recover lost body weight (in vivo; low folate diet, 15 mg/kg): not recovered prior to study termination; common clinical signs (in vivo; [9]): Rough pelage; necropsy findings (in vivo; [9]): Nothing significant; % Rx Related Deaths (in vivo; [8]): 40%; MTD (maximum tolerated dose) (in vivo): 3.75 to 15 mg/kg
